First the molecules themselves.
B1: Ribonucleoside-diphosphate reductase subunit M2 (Homo sapiens), P31350 (parent)
chain: MLSLRVPLAPITDPQQLQLSPLKGLSLVDKENTPPALSGTRVLASKTARRIFQEPTEPKTKAAAPGVEDEPLLRENPRRFVIFPIEYHDIWQMYKKAEASFWTAEEVDLSKDIQHWESLKPEERYFISHVLAFFAASDGIVNENLVERFSQEVQITEARCFYGFQIAMENIHSEMYSLLIDTYIKDPKEREFLFNAIETMPCVKKKADWALRWIGDKEATYGERVVAFAAVEGIFFSGSFASIFWLKKRGLMPGLTFSNELISRDEGLHCDFACLMFKHLVHKPSEERVREIIINAVRIEQEFLTEALPVKLIGMNCTLMKQYIEFVADRLMLELGFSKVFRVENPFDFMENISLEGKTNFFEKRVGEYQRMGVMSSPTENSFTLDADF
partner: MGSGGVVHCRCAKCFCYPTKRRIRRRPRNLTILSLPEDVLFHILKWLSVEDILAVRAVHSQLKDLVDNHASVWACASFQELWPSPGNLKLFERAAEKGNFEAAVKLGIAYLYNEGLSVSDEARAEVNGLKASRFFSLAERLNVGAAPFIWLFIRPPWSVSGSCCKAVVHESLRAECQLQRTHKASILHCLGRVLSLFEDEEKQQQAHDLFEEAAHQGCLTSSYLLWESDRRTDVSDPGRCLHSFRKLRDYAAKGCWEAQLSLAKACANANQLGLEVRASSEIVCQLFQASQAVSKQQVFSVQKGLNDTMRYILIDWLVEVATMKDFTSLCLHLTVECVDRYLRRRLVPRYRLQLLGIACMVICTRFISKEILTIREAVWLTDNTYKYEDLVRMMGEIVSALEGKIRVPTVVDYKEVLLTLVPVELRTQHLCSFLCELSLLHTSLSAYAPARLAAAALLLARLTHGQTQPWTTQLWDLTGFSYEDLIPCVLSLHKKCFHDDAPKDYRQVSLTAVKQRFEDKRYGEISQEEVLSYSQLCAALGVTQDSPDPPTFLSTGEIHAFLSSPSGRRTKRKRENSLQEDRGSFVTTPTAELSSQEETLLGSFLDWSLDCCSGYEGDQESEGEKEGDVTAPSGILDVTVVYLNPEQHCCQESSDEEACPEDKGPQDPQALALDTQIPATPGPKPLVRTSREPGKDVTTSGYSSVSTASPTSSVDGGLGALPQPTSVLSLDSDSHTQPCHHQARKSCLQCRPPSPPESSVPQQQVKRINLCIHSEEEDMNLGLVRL
B2: Cyclin-F (Homo sapiens), P41002 (parent)
chain: B1 partner
partner: B1 chain
B3: Cyclin-F (Homo sapiens), P41002 (parent)
chain: B1 partner

One experiment covers variants of B1. The settings on record: with ccnf_human CCNF.
As to MLSLRVPLAPITDPQQLQLSPLKGLSLVDKENAPPALSGTRVLASKTARRIFQEPTEPKTKAAAPGVEDEPLLRENPRRFVIFPIEYHDIWQMYKKAEASFWTAEEVDLSKDIQHWESLKPEERYFISHVLAFFAASDGIVNENLVERFSQEVQITEARCFYGFQIAMENIHSEMYSLLIDTYIKDPKEREFLFNAIETMPCVKKKADWALRWIGDKEATYGERVVAFAAVEGIFFSGSFASIFWLKKRGLMPGLTFSNELISRDEGLHCDFACLMFKHLVHKPSEERVREIIINAVRIEQEFLTEALPVKLIGMNCTLMKQYIEFVADRLMLELGFSKVFRVENPFDFMENISLEGKTNFFEKRVGEYQRMGVMSSPTENSFTLDADF [T33A], the “effect of a mutation on the interaction” value was “decreasing interaction strength”. Same read-out and setting: the result for MLSLRVPLAPITDPQQLQLSPLKGLSLVDKENTPPALSGTRVLASKTAARAFQEPTEPKTKAAAPGVEDEPLLRENPRRFVIFPIEYHDIWQMYKKAEASFWTAEEVDLSKDIQHWESLKPEERYFISHVLAFFAASDGIVNENLVERFSQEVQITEARCFYGFQIAMENIHSEMYSLLIDTYIKDPKEREFLFNAIETMPCVKKKADWALRWIGDKEATYGERVVAFAAVEGIFFSGSFASIFWLKKRGLMPGLTFSNELISRDEGLHCDFACLMFKHLVHKPSEERVREIIINAVRIEQEFLTEALPVKLIGMNCTLMKQYIEFVADRLMLELGFSKVFRVENPFDFMENISLEGKTNFFEKRVGEYQRMGVMSSPTENSFTLDADF [R49A;I51A] reads “disrupting interaction strength”.

The variants in another experiment derive from B1. The note with it: with ccnf_human CCNF. The source holds these as a separate data set.
MLSLRVPLAPITDPQQLQLSPLKGLSLVDKENAPPALSGTRVLASKTARRIFQEPTEPKTKAAAPGVEDEPLLRENPRRFVIFPIEYHDIWQMYKKAEASFWTAEEVDLSKDIQHWESLKPEERYFISHVLAFFAASDGIVNENLVERFSQEVQITEARCFYGFQIAMENIHSEMYSLLIDTYIKDPKEREFLFNAIETMPCVKKKADWALRWIGDKEATYGERVVAFAAVEGIFFSGSFASIFWLKKRGLMPGLTFSNELISRDEGLHCDFACLMFKHLVHKPSEERVREIIINAVRIEQEFLTEALPVKLIGMNCTLMKQYIEFVADRLMLELGFSKVFRVENPFDFMENISLEGKTNFFEKRVGEYQRMGVMSSPTENSFTLDADF [T33A]: the “effect of a mutation on the interaction” value is recorded as “disrupting interaction strength”.

The variants in another experiment derive from B2. The settings on record: with rir2_human RRM2, P31350.
Regarding L35A;P36A, the “effect of a mutation on the interaction” value is on record as “increasing interaction strength”.

The variants in the next experiment derive from B3. The note with it: with cp110_human CCP110, O43303.
cp110_human CCP110, O43303, sequence (O43303 whole entry): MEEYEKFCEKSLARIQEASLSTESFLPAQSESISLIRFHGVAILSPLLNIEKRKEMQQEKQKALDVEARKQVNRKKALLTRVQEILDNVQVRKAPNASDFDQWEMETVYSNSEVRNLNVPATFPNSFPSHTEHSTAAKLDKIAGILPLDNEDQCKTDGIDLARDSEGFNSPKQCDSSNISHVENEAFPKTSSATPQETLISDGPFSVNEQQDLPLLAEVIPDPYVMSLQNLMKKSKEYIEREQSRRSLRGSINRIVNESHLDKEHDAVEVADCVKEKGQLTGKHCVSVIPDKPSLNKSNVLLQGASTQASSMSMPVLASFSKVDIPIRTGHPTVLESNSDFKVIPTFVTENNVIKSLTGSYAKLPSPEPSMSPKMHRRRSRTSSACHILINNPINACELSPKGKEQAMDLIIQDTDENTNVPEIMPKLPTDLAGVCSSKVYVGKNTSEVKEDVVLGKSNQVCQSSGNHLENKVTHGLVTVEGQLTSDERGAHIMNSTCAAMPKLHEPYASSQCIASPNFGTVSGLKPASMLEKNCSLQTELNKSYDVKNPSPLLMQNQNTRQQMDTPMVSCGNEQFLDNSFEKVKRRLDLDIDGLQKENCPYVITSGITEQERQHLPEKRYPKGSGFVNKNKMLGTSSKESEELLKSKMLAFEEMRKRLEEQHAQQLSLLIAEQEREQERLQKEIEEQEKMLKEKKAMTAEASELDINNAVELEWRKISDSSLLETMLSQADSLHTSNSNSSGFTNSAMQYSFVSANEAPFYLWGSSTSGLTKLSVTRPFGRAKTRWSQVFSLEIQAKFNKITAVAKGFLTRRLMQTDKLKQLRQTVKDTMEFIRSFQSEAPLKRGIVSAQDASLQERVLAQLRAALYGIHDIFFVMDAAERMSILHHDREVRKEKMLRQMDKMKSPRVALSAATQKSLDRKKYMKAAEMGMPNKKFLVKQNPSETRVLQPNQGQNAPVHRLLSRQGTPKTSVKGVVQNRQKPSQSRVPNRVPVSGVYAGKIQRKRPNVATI
Regarding L35A;P36A, the “effect of a mutation on the interaction” value is “increasing interaction strength”.

The values are drawn from IntAct's records for PubMed 22632967.
